Results taken from the supplement of paper PMC9112550, “Optimization of the antimicrobial peptide Bac7 by deep mutational scanning” (BMC Biology, 2022).

Tested on: Escherichia coli TOP10
Assay: shrunken log2 fold change of peptide-encoding DNA abundance (4.5 h post-induction vs induction); higher = less antimicrobial activity (less host growth inhibition)
Details: time post-induction: 4.5 h; library: site-saturation at positions 5, 18, 19, 20
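Note: peptides expressed intracellularly from a pBAD plasmid library in pooled LB shake-flask culture, induced with 0.3% L-arabinose, DNA abundance read by NGS, three biological replicates, DESeq2 with apeglm shrinkage.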

Sequence | shrunken log2 fold change
RRIRIRPPRLPRPRPRPHDEPRP | -0.463
RRIRVRPPRLPRPRPRPLIHPRP | -0.393
RRIRRRPPRLPRPRPRPGHKPRP | 0.0528
RRIRERPPRLPRPRPRPMTSPRP | -0.212
RRIRNRPPRLPRPRPRPASIPRP | -0.0365
RRIRYRPPRLPRPRPRPCMGPRP | -0.198
RRIRARPPRLPRPRPRPLMQPRP | 0.223
RRIRERPPRLPRPRPRPILFPRP | -0.57
RRIRQRPPRLPRPRPRPYHGPRP | -0.126
RRIRNRPPRLPRPRPRPETAPRP | 0.536
RRIRQRPPRLPRPRPRPKHNPRP | -0.368
RRIRLRPPRLPRPRPRPKYWPRP | -0.131
RRIRFRPPRLPRPRPRPRCGPRP | 0.114
RRIRKRPPRLPRPRPRPGTKPRP | 0.0906
RRIRIRPPRLPRPRPRPANGPRP | 0.0224
RRIRSRPPRLPRPRPRPQKGPRP | -0.0456
RRIRPRPPRLPRPRPRPAGMPRP | -0.00962
RRIRDRPPRLPRPRPRPSLHPRP | 0.0986
RRIRIRPPRLPRPRPRPYLSPRP | -0.0357
RRIRCRPPRLPRPRPRPVKCPRP | -0.432
RRIRGRPPRLPRPRPRPKECPRP | 0.0235
RRIRHRPPRLPRPRPRPTEFPRP | -0.153

Sequence | shrunken log2 fold change
RRIRPRPPRLPRPRPRPIQYPRP | -0.642
RRIRARPPRLPRPRPRPPLDPRP | 1
RRIRGRPPRLPRPRPRPENTPRP | 0.841
RRIRGRPPRLPRPRPRPIKHPRP | 0.171
RRIRDRPPRLPRPRPRPSMEPRP | 0.0308
RRIRNRPPRLPRPRPRPEVVPRP | -0.252
RRIRYRPPRLPRPRPRPMFAPRP | -0.117
RRIRNRPPRLPRPRPRPFWCPRP | 0.000145
RRIRQRPPRLPRPRPRPQAQPRP | 0.0471
RRIRPRPPRLPRPRPRPNKIPRP | -0.203
RRIRERPPRLPRPRPRPMQRPRP | -0.00559
RRIRHRPPRLPRPRPRPVYYPRP | -1.02
RRIRTRPPRLPRPRPRPNSFPRP | -0.00453
RRIRQRPPRLPRPRPRPCTPPRP | -0.141
RRIRGRPPRLPRPRPRPIQIPRP | -0.0799
RRIRERPPRLPRPRPRPTKTPRP | -0.0835
RRIRYRPPRLPRPRPRPTWAPRP | -0.0132
RRIRERPPRLPRPRPRPEDWPRP | 0.351
RRIRGRPPRLPRPRPRPRKQPRP | 0.875
RRIRFRPPRLPRPRPRPTFVPRP | -0.051
RRIRPRPPRLPRPRPRPNDTPRP | -0.338
RRIRSRPPRLPRPRPRPVSYPRP | -0.0884

Sequence | shrunken log2 fold change
RRIRVRPPRLPRPRPRPFGIPRP | -0.371
RRIRQRPPRLPRPRPRPVALPRP | -0.0318
RRIRDRPPRLPRPRPRPTYMPRP | -0.248
RRIRLRPPRLPRPRPRPIFFPRP | 0.103
RRIRMRPPRLPRPRPRPWMGPRP | -0.33
RRIRWRPPRLPRPRPRPKDHPRP | 0.182
RRIRNRPPRLPRPRPRPGEAPRP | 0.33
RRIRMRPPRLPRPRPRPHVCPRP | -0.107
RRIRSRPPRLPRPRPRPKLGPRP | 0.281
RRIRTRPPRLPRPRPRPQNQPRP | -0.584
RRIRFRPPRLPRPRPRPIVCPRP | -0.406
RRIRCRPPRLPRPRPRPQLFPRP | -0.242
RRIRRRPPRLPRPRPRPQHVPRP | -0.0783
RRIRSRPPRLPRPRPRPTMRPRP | 0.881
RRIRIRPPRLPRPRPRPRTYPRP | -0.726
RRIRIRPPRLPRPRPRPFFWPRP | 0.364
RRIRVRPPRLPRPRPRPSNAPRP | 0.111
RRIRRRPPRLPRPRPRPIILPRP | -0.406
RRIRTRPPRLPRPRPRPENHPRP | -0.119
RRIRWRPPRLPRPRPRPRFQPRP | 0.199
RRIRFRPPRLPRPRPRPIMTPRP | -0.368
RRIRQRPPRLPRPRPRPVWVPRP | 0.0799

Sequence | shrunken log2 fold change
RRIRKRPPRLPRPRPRPAMIPRP | 0.909
RRIRNRPPRLPRPRPRPYADPRP | -0.161
RRIRFRPPRLPRPRPRPIVSPRP | 0.303
RRIRRRPPRLPRPRPRPAHAPRP | 0.407
RRIRMRPPRLPRPRPRPYMVPRP | -0.0313
RRIRARPPRLPRPRPRPHAHPRP | 0.254
RRIRTRPPRLPRPRPRPIPIPRP | -0.0307
RRIRVRPPRLPRPRPRPTMAPRP | 0.235
RRIRVRPPRLPRPRPRPFFFPRP | 0.151
RRIRWRPPRLPRPRPRPMWYPRP | -0.0539
RRIRKRPPRLPRPRPRPHISPRP | -0.00759
RRIRHRPPRLPRPRPRPRRQPRP | 0.0256
RRIRCRPPRLPRPRPRPMWLPRP | -0.235
RRIRVRPPRLPRPRPRPPARPRP | 0.76
RRIRHRPPRLPRPRPRPEFYPRP | -0.0662
RRIRMRPPRLPRPRPRPPVAPRP | 1.3
RRIRMRPPRLPRPRPRPTRKPRP | 1.6
RRIRTRPPRLPRPRPRPTGLPRP | -0.0841
RRIRDRPPRLPRPRPRPESKPRP | 0.0201
RRIRERPPRLPRPRPRPGLVPRP | -0.061
RRIRTRPPRLPRPRPRPKSIPRP | -0.194
RRIRRRPPRLPRPRPRPSKPPRP | 0.241

Sequence | shrunken log2 fold change
RRIRTRPPRLPRPRPRPPVHPRP | 0.0813
RRIRTRPPRLPRPRPRPPENPRP | 0.201
RRIRNRPPRLPRPRPRPDDLPRP | -0.000687
RRIRGRPPRLPRPRPRPKYIPRP | 0.167
RRIRPRPPRLPRPRPRPTLKPRP | 0.114
RRIRWRPPRLPRPRPRPMYDPRP | -0.158
RRIRTRPPRLPRPRPRPMHGPRP | -0.0017
RRIRARPPRLPRPRPRPNGHPRP | 0.53
RRIRFRPPRLPRPRPRPKRPPRP | 0.755
RRIRGRPPRLPRPRPRPLRGPRP | 1.29
RRIRCRPPRLPRPRPRPSWNPRP | -0.68
RRIRQRPPRLPRPRPRPCSCPRP | 0.0297
RRIRQRPPRLPRPRPRPRYLPRP | -0.422
RRIRWRPPRLPRPRPRPQRGPRP | 0.115
RRIRTRPPRLPRPRPRPKDQPRP | -0.0284
RRIRHRPPRLPRPRPRPQFVPRP | -0.163
RRIRVRPPRLPRPRPRPMAEPRP | 2.52
RRIRFRPPRLPRPRPRPSNIPRP | -0.864
RRIRARPPRLPRPRPRPQQSPRP | 0.54
RRIRWRPPRLPRPRPRPCMSPRP | -0.00264
RRIRDRPPRLPRPRPRPNPLPRP | 1.05
